Measured values taken from patent publication US20250320281A1.

Assays:
Assay in all cases: cell-based or functional assay
[1] = biological target: HIV-1 Env of pseudovirus MGRM-AE-007 (subtype AE) (HIV-1)
[2] = biological target: HIV-1 Env of isolate MG RM-D-013 (HIV-1)
[3] = biological target: HIV-1 Env of isolate MGRM-F1-012 (HIV-1)
[4] = biological target: HIV-1 Env of isolate MG RM-D-020 (HIV-1)
[5] = biological target: HIV-1 Env of isolate MGRM-F1-022 (HIV-1)
[6] = biological target: HIV-1 Env of isolate MG RM-D-022 (HIV-1)
[7] = biological target: HIV-1 Env of isolate MGRM-F1-021 (HIV-1)
[8] = biological target: HIV-1 Env of isolate MGRM-F1-014 (HIV-1)
[9] = biological target: HIV-1 Env of isolate MGRM-F1-006 (HIV-1)
[10] = biological target: HIV-1 Env of isolate MGRM-F1-018 (HIV-1)
[11] = biological target: HIV-1 Env of pseudovirus MGRM-AG-008 (subtype AG) (HIV-1)
[12] = biological target: HIV-1 Env of pseudovirus MGRM-AG-005 (subtype AG) (HIV-1)
[13] = biological target: HIV-1 Env of isolate MGRM-F1-016 (HIV-1)
[14] = biological target: HIV-1 Env of isolate MG RM-D-014 (HIV-1)
[15] = biological target: HIV-1 Env of isolate MG RM-D-024 (HIV-1)
[16] = biological target: HIV-1 Env of pseudovirus MGRM-AG-002 (subtype AG) (HIV-1)
[17] = biological target: HIV-1 Env of isolate MGRM-F1-008 (HIV-1)
[18] = biological target: HIV-1 Env of isolate MG RM-D-019 (HIV-1)
[19] = biological target: HIV-1 Env of pseudovirus MGRM-AG-012 (subtype AG) (HIV-1)
[20] = biological target: HIV-1 Env of isolate MG RM-D-012 (HIV-1)
[21] = biological target: HIV-1 Env of isolate MGRM-F1-013 (HIV-1)
[22] = biological target: HIV-1 Env of isolate MGRM-F1-004 (HIV-1)
[23] = biological target: HIV-1 Env of isolate MG RM-D-011 (HIV-1)
[24] = biological target: HIV-1 Env of pseudovirus MGRM-AG-006 (subtype AG) (HIV-1)
[25] = biological target: HIV-1 Env of isolate MG RM-D-018 (HIV-1)
[26] = biological target: HIV-1 Env of isolate MGRM-F1-010 (HIV-1)
[27] = biological target: HIV-1 Env of pseudovirus MGRM-AG-013 (subtype AG) (HIV-1)
[28] = biological target: HIV-1 Env of pseudovirus MGRM-AG-009 (subtype AG) (HIV-1)
[29] = biological target: HIV-1 Env of pseudovirus MGRM-AG-003 (subtype AG) (HIV-1)
[30] = biological target: HIV-1 Env of isolate MGRM-F1-023 (HIV-1)
[31] = biological target: HIV-1 Env of isolate MG RM-D-026 (HIV-1)
[32] = biological target: HIV-1 Env of isolate MGRM-C-005 (HIV-1)
[33] = biological target: HIV-1 Env of isolate MGRM-F1-015 (HIV-1)
[34] = biological target: HIV-1 Env of pseudovirus MGRM-AG-001 (subtype AG) (HIV-1)
[35] = biological target: HIV-1 Env of isolate MGRM-F1-020 (HIV-1)
[36] = biological target: HIV-1 Env of pseudovirus MGRM-AG-011 (subtype AG) (HIV-1)
[37] = biological target: HIV-1 Env of isolate MGRM-F1-017 (HIV-1)
[38] = biological target: HIV-1 Env of isolate MG RM-D-021 (HIV-1)
[39] = biological target: HIV-1 Env of isolate MG RM-D-029 (HIV-1)
[40] = biological target: HIV-1 Env of isolate MG RM-D-028 (HIV-1)
[41] = biological target: HIV-1 Env of isolate MG RM-D-016 (HIV-1)
[42] = biological target: HIV-1 Env of pseudovirus MGRM-AE-008 (subtype AE) (HIV-1)

Chain of PGT-144 (4970_K22) (antibody) (VH): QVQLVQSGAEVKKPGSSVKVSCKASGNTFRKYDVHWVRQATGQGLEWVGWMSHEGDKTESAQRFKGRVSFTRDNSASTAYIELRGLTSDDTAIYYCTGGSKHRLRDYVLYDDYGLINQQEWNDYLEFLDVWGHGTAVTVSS
Chain of PGT-144 (4970_K22) (antibody) (VL): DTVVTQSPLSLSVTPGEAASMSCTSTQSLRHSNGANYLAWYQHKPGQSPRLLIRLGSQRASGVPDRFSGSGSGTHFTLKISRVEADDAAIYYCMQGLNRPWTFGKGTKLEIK
Chain of PGT-141 (4964_G22; 4993_K13) (antibody) (VH): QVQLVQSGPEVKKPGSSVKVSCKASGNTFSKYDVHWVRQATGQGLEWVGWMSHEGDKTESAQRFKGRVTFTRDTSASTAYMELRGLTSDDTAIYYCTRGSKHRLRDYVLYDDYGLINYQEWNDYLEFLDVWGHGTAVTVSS
Chain of PGT-141 (4964_G22; 4993_K13) (antibody) (VL): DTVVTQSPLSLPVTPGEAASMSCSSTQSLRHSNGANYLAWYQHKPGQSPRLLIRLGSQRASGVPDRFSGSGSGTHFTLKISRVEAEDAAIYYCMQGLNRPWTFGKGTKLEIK

PGT-141 (4964_G22; 4993_K13) (antibody) was tested, and the IC50, pseudovirus neutralization [1] was 33.1 µg/mL, the IC50 [2] was 0.179 µg/mL and the IC50 [3] was > 50 µg/mL. The IC50 [4] was > 50 µg/mL, the IC50 [5] was 0.114 µg/mL and the IC50 [6] was > 50 µg/mL. For the same substance, the IC50 [7] was > 50 µg/mL, the IC50 [8] was 0.001 µg/mL and the IC50 [9] was 8.99 µg/mL. The IC50 [10] was 0.785 µg/mL, the IC50, pseudovirus neutralization [11] was 19.2 µg/mL and the IC50, pseudovirus neutralization [12] was 0.497 µg/mL. The IC50 [13] was > 50 µg/mL, the IC50 [14] was 0.01 µg/mL and the IC50 [15] was > 50 µg/mL. The IC50, pseudovirus neutralization [16] was 0.049 µg/mL, the IC50 [17] was 0.193 µg/mL and the IC50 [18] was 1.66 µg/mL. The IC50, pseudovirus neutralization [19] was > 50 µg/mL, the IC50 [20] was > 50 µg/mL and the IC50 [21] was 0.043 µg/mL. The IC50 [22] was 0.021 µg/mL, the IC50 [23] was > 50 µg/mL and the IC50, pseudovirus neutralization [24] was > 50 µg/mL. For the same substance, the IC50 [25] was > 50 µg/mL, the IC50 [26] was > 50 µg/mL and the IC50, pseudovirus neutralization [27] was > 50 µg/mL. The IC50, pseudovirus neutralization [28] was > 50 µg/mL, the IC50, pseudovirus neutralization [29] was > 50 µg/mL and the IC50 [30] was 0.307 µg/mL. For the same substance, the IC50 [31] was 32.5 µg/mL, the IC50, pseudovirus neutralization [32] was 8.83 µg/mL and the IC50 [33] was > 50 µg/mL. It also gave an IC50, pseudovirus neutralization [34] of 18 µg/mL, an IC50 [35] of 1.15 µg/mL and an IC50, pseudovirus neutralization [36] of 0.118 µg/mL. The IC50 [37] was 30.8 µg/mL, the IC50 [38] was > 50 µg/mL and the IC50 [39] was 0.057 µg/mL. For the same substance, the IC50 [40] was < 50 µg/mL, the IC50 [41] was > 50 µg/mL and the IC50, pseudovirus neutralization [42] was 0.101 µg/mL.

For PGT-144 (4970_K22) (antibody), the IC50, pseudovirus neutralization [1] was > 50 µg/mL, the IC50 [2] was > 50 µg/mL and the IC50 [3] was > 50 µg/mL. For the same substance, the IC50 [4] was > 50 µg/mL, the IC50 [5] was 0.382 µg/mL and the IC50 [6] was > 50 µg/mL. The IC50 [7] was > 50 µg/mL, the IC50 [8] was 0.014 µg/mL and the IC50 [9] was 20.6 µg/mL. The IC50 [10] was > 50 µg/mL, the IC50, pseudovirus neutralization [11] was > 50 µg/mL and the IC50, pseudovirus neutralization [12] was > 50 µg/mL. For the same substance, the IC50 [13] was > 50 µg/mL, the IC50 [14] was 0.113 µg/mL and the IC50 [15] was > 50 µg/mL. The IC50, pseudovirus neutralization [16] was 7.78 µg/mL, the IC50 [17] was 0.507 µg/mL and the IC50 [18] was > 50 µg/mL. The IC50, pseudovirus neutralization [19] was > 50 µg/mL, the IC50 [20] was > 50 µg/mL and the IC50 [21] was 0.509 µg/mL. The IC50 [22] was 0.105 µg/mL, the IC50 [23] was > 50 µg/mL and the IC50, pseudovirus neutralization [24] was > 50 µg/mL. The IC50 [25] was > 50 µg/mL, the IC50 [26] was > 50 µg/mL and the IC50, pseudovirus neutralization [27] was > 50 µg/mL. For the same substance, the IC50, pseudovirus neutralization [28] was > 50 µg/mL, the IC50, pseudovirus neutralization [29] was > 50 µg/mL and the IC50 [30] was 1.16 µg/mL. The IC50 [31] was > 50 µg/mL, the IC50 [33] was > 50 µg/mL and the IC50, pseudovirus neutralization [34] was > 50 µg/mL. The IC50 [35] was 8.93 µg/mL, the IC50, pseudovirus neutralization [36] was 44.6 µg/mL and the IC50 [37] was > 50 µg/mL. The IC50 [38] was > 50 µg/mL, the IC50 [39] was 0.459 µg/mL and the IC50 [40] was > 50 µg/mL. For the same substance, the IC50 [41] was > 50 µg/mL and the IC50, pseudovirus neutralization [42] was 3.55 µg/mL.
